Experimental findings from patent US20220125947A1 (published 2022) are described below.

Sequences and labels used below:
B1: VG9B114 (antibody, human IgG1, kappa, V domains shown)
VH: EVQLVESGGDLVQPGGSLRLSCAASGFTFSRYDMHWVRQATGKGLEWVSAIGSAGDTYYPGSVKGRFTISRENAKNSLYLQMNSLRAGDTAVYYCARGKWELRDAFDIWGQGTMVTVSS
VL: DIVMTQSPSFLSASVGDRVTITCRASQGIHSYLAWYQQKPGKAPKLLIYVASTLQSGVPSRFSGSRSGTEFTLTISSLQPEDFATYYCQQLNSYPYTFGQGTKLEIKR
notes: IgG1, kappa
B2: VG9B81 (antibody, human IgG1, kappa, V domains shown)
VH: QVQLQESGPGLVKPSETLSLTCSVSGGSINTYYWSWFRQPAGKGLELIGRIYTSDNTNYNPSLKSRVTMSVDTSKNQFSLKLSSVTAADTAVYYCARYNWNYWYFDLWGRGTLVTVSS
VL: B1 VL with V3Q, G16R, T20N, H30S, V50T, R66G, Q90H, L104V
notes: IgG1, kappa
B3: VG9B27 (antibody, human IgG1, kappa, V domains shown)
VH: EVQLVQSGAEVKKPGSSVKVSCKASGGTFSSYVISWVRQAPGQGLEWMGGILPILSTANYAQKFQGRVTITADKSTSTAYMELSSLRSEDTAVYYCARAHDYYYGMDVWGQGTMVTVSS
VL: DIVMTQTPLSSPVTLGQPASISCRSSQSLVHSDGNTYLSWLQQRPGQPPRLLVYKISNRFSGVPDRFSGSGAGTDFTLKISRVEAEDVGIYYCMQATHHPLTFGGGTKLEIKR
notes: IgG1, kappa
B4: VG9B462 (antibody, human IgG1, lambda)
heavy: not shown
light: QSVLTQPASVSGSPGQSITISCTGTSSDVGGYNYVSWYQQHPGKAPKLMIYEVSNRPSGVSNRFSGSKSGNTASLTISGLQAEDEADYYCSSYTSTSVVFGGGTKLTVLGQPKAAPSVTLFPPSSEELQANKATLVCLISDFYPGAVTVAWKADSSPVKAGVETTTPSKQSNNKYAASSYLSLTPEQWKSHRSYSCQVTHEGSTVEKTVAPTECS
notes: IgG1, lambda
B5: VG9B461 (antibody, human IgG1, lambda)
heavy: not shown
light: B4 light with S2P, P7S, A8S, L106V
notes: IgG1, lambda
B6: VG9B458 (antibody, human IgG1, lambda)
heavy: not shown
light: B4 light
notes: IgG1, lambda
B7: VG9B131 (antibody, human IgG1, kappa, V domains shown)
VH: QVQLVQSGGTLVQPGGSLRLSCAVSGFTFSSYDMNWVRQAPGKGLEWVSYISSSSTAKYYADSVKGRFTISRDNAKNSLYLQMNSLWDEDTAVYYCAREDIVVVTPILQHWGQGTLVTVSS
VL: EIVMTQSPATLSLSPGERATLSCRASQSVSNYLAWYQQKSGQAPRLLIYDASNRATGIPARFSGSGSGTDFTLTISSLEPEDFAVYCCQQRSNWTFGQGTRLEIKR
notes: IgG1, kappa
B8: VG9B177 (antibody, human IgG1, lambda, V domains shown)
VH: QVQLQESGPGLVKPSETLSLTCTVSGGSINNYFWSWIRQPPGKGLEWIGYIFYSGSTNYNPSLKSRVTISIDTSKNQFSLKVNSVTAADTAVYYCARVGKWELRTAFDIWGQGTMVTVSS
VL: QSALTQPASVSGSPGQSITISCTGTSSDVADYNYVSWYQQHPGKAPKLMIYEVSNRPSGVSNRFSGSKSGNTASLTISGLQAEDEADYYCCSYTSSFTVVFGGGTKVTVLG
notes: IgG1, lambda
B9: VG9B147 (antibody, human IgG1, lambda, V domains shown)
VH: QVQLQESGPGLVNPSETLSLTCTVSGGSISGYFWNWIRQPPGKGLEWIGYIFYSGSTNYNPSLKSRVTISVDTSKNQFSLKLSSVTAADTAIYYCAREGKWELRSTFDIWGQGTMVTVSS
VL: SSELTQDPAVSVALGQTVRITCQGDSLRSYYATWYQQKPGQAPILVIYGENNRPSGIPDRFSGSRSGNTASLTITGAQAEDEADYYCNSRDTGDHHLVFGGGTKLTVLG
notes: IgG1, lambda
B10: VG9B106 (antibody, human IgG1, kappa, V domains shown)
VH: EVQLVQSGAEVKKPGASVKVSCKASGYTFTGYYLHWVRQAPGQGLEWVGWINPSSGDTDYAQTFQGRVTMTRDTSISTAYMELSRLRSDDTAVYYCANELGIGVFDYWGQGTLVTVSS
VL: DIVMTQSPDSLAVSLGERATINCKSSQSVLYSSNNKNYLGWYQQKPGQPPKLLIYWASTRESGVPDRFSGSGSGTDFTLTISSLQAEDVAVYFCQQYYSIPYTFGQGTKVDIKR
notes: IgG1, kappa
B11: VG9B115 (antibody, human IgG1, kappa, V domains shown)
VH: QVTLRESGPTLVKPTQTLTLTCTFSGFSLSTYGVGVGWIRQPPGKALEWLALIYWNDDKRYNPSLKSRLTITKDTSKNQVVLTMTNMDPVGTATYYCSHESDWSYYFDYWGQGTMVTVSS
VL: EIVLTQSPATLSLSPGERATLSCRASQSVSSYLAWYQQKPGLAPRLLIYDASNRATGIPARFSGSGSGTDFTLTISSLEPVDFAVYYCQQRSSWPWTFGQGTKVDIKR
notes: IgG1, kappa
B12: VG9B65 (antibody, human IgG1, kappa, V domains shown)
VH: QVQLVQSGAEVKKPGSSVKVSCKASGGTFNIYAINWVRQAPGQGLEWMGGIIPFFGTANYAQKFQDRVTITADKSTNTAYMELSSLRSEDTAVFYCARGGDSGYDWGFDYWGQGTLVTVSS
VL: DIVMTQTPLSSPVTLGQPASISCRSSQSLVHSDGNTYLSWLQQRPGQPPRLLIYQISNRFSGVPDRFSGSGAGTDFTLNISRVEADDVGVYYCMQATQFPLTFGGGTKVEIKR
notes: IgG1, kappa
B13: VG9B103 (antibody, human IgG1, kappa, V domains shown)
VH: EVQLVQSGAEVKKPGSSVKVSCKTSGGTFSSYAISWVRQAPGQGLEWMGGIIPIFGTATYAQKFQDRVTITADKSTSTAYMELSSLRSEDTAVFYCARGVGWGTDYYYGLDVWGQGTTVTVSS
VL: ETTLTQSPLSSPVTLGQPASISCRSSQGLVHSDGNTYLSWLQQRPGQSPRLLIYKISNRFSGVPDRFSGSGAGTDFTLKISRVEAEDVGVYYCMQATHHPLTFGGGTKVEIKR
notes: IgG1, kappa
B14: VG9B203 (antibody, human IgG1, lambda, V domains shown)
VH: QVQLVQSGPGLVKPSETLSLTCTVSGDSIGHYYWNWIRQPAGKGLEWIGRIYTSGSTNYNPSLKSRVTMSVDTSKNQFSLKLSSVTAADTAVYYCARSGGNFYWYFDLWGRGTLVTVSS
VL: QSVLTQPPSVSAAPGQKVTISCSGSSSNIGNNYVSWYQQVPGTAPKLLIYDNNKRPSGIPDRISGSKSGTSATLGITGLQTGDEADYYCGTWDSSLSAGVFGGGTKVTVLG
notes: IgG1, lambda
B15: VG9B163 (antibody, human IgG1, lambda, V domains shown)
VH: QVQLVQSGGGLVKPGASLKLSCAASGFTFSNHGMSWVRQTSDKRLEWVASITRGGDTTYYPDNVKGRFTISRENAKNTLYLQMSSLKSDDTALYYCTRGPLTVGYAMDYWGQGTTVTVSS
VL: B14 VL with S2L, S25N, N31H, V40L, K54Q, I63F, G69D, T91I, A98I, G99V
notes: IgG1, lambda
B16: VG9B380 (antibody, human IgG1, lambda, V domains shown)
VH: QVQLQESGPGLVKPSETLSLTCTVSGGSISNYYWSWIRQPAGKGLEWIGRIYPSGITSYDPSLKSRVTMSLDTSKNQFSLKLTSVTAADTAVYYCAGIMGTKGAFDIWGQGTMVTVSS
VL: QSALTQPASVSGSPGQSITISCTGTSSDVGGYNYVSWYQQHPGKAPKLLIYEVSNRPSGVSNRFSGSKSGSTASLTISGLQAEDEADYYCSSYTSTSVVFGGGTKLTVLG
notes: IgG1, lambda
B17: VG9B186 (antibody, human IgG1, lambda, V domains shown)
VH: QVTLRESGPVLVKPTETLTLTCTVSGFSLTNIRMSVSWIRQPPGEALEWLAHIFSNDEKSYNSSLKSRLTISRDTSKSQVVLTLTNVDPVDTATYYCARMRLPYGMDVWGQGTMVTVSS
VL: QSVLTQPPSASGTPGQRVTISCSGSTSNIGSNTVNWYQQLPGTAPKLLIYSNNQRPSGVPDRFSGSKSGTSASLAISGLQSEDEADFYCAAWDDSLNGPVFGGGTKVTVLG
notes: IgG1, lambda

Substitutions are numbered along the chain they refer to.

This experiment deals with T1, gamma-delta T cell receptor on human γδ T cells (human).
T1 construct: also called AG000003021 (γδ T cells)
The experiment can be described thus: flow cytometry, dose-response binding at 37 C, human γδ T cells. How it is done: Binding of antibodies to human γδ T cells or SKW cell lines expressing Vγ9/Vδ2, Vγ9/Vδ2 or Vγ5/Vδ2 was carried out by flow cytometry. Briefly, the cells were centrifuged at 300×g for 5 minutes and the pellet was resuspended in 34 ml fresh media (in RPMI+10% FBS). 50 μL of the cells were then plated (44K cells/well) into assay plates. Samples were incubated for one hour at 37° C. in tissue culture (TC) incubator followed by wash steps by adding 100 μl FACS staining buffer. Secondary detention antibodies (A647 conjugated anti-human IgG Fc specific antibody (2 μg/mL) along with AF488 anti mouse CD3, clone OKT3 at 1 ug/mL) were added at 50 μL/well to appropriate wells according to the plate map. After incubating for 60 minutes at 37° C. in the TC incubator, cells were again washed as described above. This is followed by resuspension in 20 μL/well running buffer containing 1:1000 dilution of Sytox blue dead cell stain and the plates were run on iQue Screener.
Gating and data analysis: Human anti-human Vγ9 antibody (VG9B2 mAb at 10 nM) was used to mark the gating of positive population. All cells were first gated for singlets on SCS-A vs. SCS-H dot plot, live/dead followed by CD3 positive population, and this subset of CD3 positive population was gated for Vγ9 positive binding using positive control mAb. Cells were also assessed for cell binding of control mAbs by RL1 (A647) Geomeans from the live cell population. Advanced metrics were used and normalization metrics were chosen to calculate fold over background wells containing secondary antibody alone (designated as ‘background’ within ForeCyt settings).
As for B1, the “Max. Activity” value came to 1980 fold over background.

With B2, the “Max. Activity” value is 1770 fold over background.

For B3, the “Max. Activity” value is 1450 fold over background.

Regarding B4, the “Max. Activity” value amounted to 1540 fold over background.

Consider B5, for which the “Max. Activity” value turned out to be 1540 fold over background.

Turning to B6, the “Max. Activity” value turned out to be 1410 fold over background.

With B7, the “Max. Activity” value came to 1400 fold over background.

B8: the “Max. Activity” value came out at 2250 fold over background.

B9: the “Max. Activity” value came out at 1890 fold over background.

On to B10, for which the “Max. Activity” value was determined as 1520 fold over background.

For B11, the “Max. Activity” value amounted to 1520 fold over background.

With B12, the “Max. Activity” value came out at 1820 fold over background.

On to B13, for which the “Max. Activity” value was 1680 fold over background.

Turning to B14, the “Max. Activity” value was 1750 fold over background.

Take B15: the “Max. Activity” value was found to be 1350 fold over background.

On to B16, for which the “Max. Activity” value was 1750 fold over background.

Regarding B17, the “Max. Activity” value turned out to be 2290 fold over background.
